In publication PMC4104028:

Key:
[1] = molecular target: endogenous Atg16L1 (HEK293A) (UniProt Q676U5); assay: GFP-Trap, immunoblot quantification; conditions: parent: est. 0.49; read off a plot
[2] = molecular target: FLAG-Atg16L1 E226R, Q8C0J2-3; assay: GFP-Trap co-immunoprecipitation from mixed lysates, immunoblot quantification; conditions: parent: est. 2.5; read off a plot
[3] = molecular target: FLAG-Atg16L1 E226R E230R (ERER), Q8C0J2-3; assay: as above; conditions: parent: est. 2.5; read off a plot
Sequence of FLAG-Atg16L1 E226R E230R (ERER), Q8C0J2-3 (Q8C0J2 other isoform, or with tags, fused parts or gaps E226R | E230R | E226R E230R): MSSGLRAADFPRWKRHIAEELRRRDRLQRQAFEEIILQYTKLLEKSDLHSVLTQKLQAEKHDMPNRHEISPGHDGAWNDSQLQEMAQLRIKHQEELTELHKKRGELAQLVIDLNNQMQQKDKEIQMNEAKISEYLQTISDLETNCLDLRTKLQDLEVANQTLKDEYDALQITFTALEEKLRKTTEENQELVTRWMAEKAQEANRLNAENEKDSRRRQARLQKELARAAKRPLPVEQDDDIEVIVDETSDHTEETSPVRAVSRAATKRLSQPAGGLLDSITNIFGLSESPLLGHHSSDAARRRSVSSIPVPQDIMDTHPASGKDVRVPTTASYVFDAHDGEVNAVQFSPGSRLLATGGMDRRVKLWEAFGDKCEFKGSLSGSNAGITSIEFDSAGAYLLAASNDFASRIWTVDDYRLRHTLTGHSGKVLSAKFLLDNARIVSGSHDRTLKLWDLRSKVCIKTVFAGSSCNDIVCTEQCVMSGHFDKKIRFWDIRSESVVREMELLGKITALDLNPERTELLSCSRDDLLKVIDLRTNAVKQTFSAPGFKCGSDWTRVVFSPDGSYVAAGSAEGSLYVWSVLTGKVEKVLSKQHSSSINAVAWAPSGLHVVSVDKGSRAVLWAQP

[4] = molecular target: FLAG-Atg16L1 E230R, Q8C0J2-3; assay: as above; conditions: parent: est. 2.5; read off a plot
Sequence of FLAG-Atg16L1 E230R, Q8C0J2-3 (Q8C0J2 other isoform, or with tags, fused parts or gaps E230R | E230R): as the sequence (Q8C0J2 other isoform, or with tags, fused parts or gaps E226R | E230R | E226R E230R) above, with R226E counted along it

Sequence of FLAG-Atg16L1 E226R, Q8C0J2-3 (Q8C0J2 other isoform, or with tags, fused parts or gaps E226R | E226R): as the sequence (Q8C0J2 other isoform, or with tags, fused parts or gaps E226R | E230R | E226R E230R) above, with R230E counted along it
Sequence of endogenous Atg16L1 (HEK293A) (Q676U5 whole entry): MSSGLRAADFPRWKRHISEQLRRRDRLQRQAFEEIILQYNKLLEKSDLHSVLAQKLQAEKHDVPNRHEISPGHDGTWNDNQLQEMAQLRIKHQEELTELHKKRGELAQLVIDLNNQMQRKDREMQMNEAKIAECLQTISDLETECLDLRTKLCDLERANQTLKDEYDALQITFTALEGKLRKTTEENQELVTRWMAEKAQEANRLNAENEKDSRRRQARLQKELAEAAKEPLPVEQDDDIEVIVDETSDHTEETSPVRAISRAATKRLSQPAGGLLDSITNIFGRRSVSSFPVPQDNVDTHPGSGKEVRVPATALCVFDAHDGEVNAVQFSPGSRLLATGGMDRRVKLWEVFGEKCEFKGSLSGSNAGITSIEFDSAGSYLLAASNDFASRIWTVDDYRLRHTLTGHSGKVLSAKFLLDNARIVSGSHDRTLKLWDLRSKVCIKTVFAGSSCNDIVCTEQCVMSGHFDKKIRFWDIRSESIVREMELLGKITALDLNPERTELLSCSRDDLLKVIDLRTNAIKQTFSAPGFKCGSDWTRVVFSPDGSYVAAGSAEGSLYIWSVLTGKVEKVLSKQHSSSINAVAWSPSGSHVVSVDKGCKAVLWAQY

Substance | response [2] | response [3] | response [4] | further results
GFP-WIPI2b FRRG to FTTG |  |  |  | response [1]: 0.79
m1; m3 WIPI2b:R108E; Atg16L1:E226R | 0.05 |  |  | 
m1; m3 WIPI2b:R108E; Atg16L1:E226R; Atg16L1:E230R |  | 0.13 |  | 
m1; m3 WIPI2b:R108E; Atg16L1:E230R |  |  | 0.87 | 
m1; m3 WIPI2b:R108E; WIPI2b:R125E; Atg16L1:E226R | 0.04 |  |  | 
m1; m3 WIPI2b:R108E; WIPI2b:R125E; Atg16L1:E226R; Atg16L1:E230R |  | 0.04 |  | 
m1; m3 WIPI2b:R108E; WIPI2b:R125E; Atg16L1:E230R |  |  | 0.05 | 
m1; m3 WIPI2b:R125E; Atg16L1:E226R | 0.05 |  |  | 
m1; m3 WIPI2b:R125E; Atg16L1:E226R; Atg16L1:E230R |  | 0.23 |  | 
m1; m3 WIPI2b:R125E; Atg16L1:E230R |  |  | 0.04 | 
